Experimental data as given in patent CN109627340A (UNIV SHANGHAI JIAOTONG; JECHO LABORATORIES INC, dated 2019).

Biological target: T1, 人PRLR胞外结构域 (Sino Biological) (human, UniProt P16471 25-234)
T1 construct: Bought recombinant protein (Sino Biological); also called PRLR胞外区; PRLR ECD
T1 sequence (looked up): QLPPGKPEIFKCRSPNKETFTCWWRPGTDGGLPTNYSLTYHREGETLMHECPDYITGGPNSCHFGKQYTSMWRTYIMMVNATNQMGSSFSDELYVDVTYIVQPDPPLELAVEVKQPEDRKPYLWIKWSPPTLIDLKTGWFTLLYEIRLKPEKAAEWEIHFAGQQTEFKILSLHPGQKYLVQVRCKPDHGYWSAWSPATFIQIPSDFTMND
Assay: SPR, Biacore T200, antigen amine-coupled to CM5 chip

B1: PRLR-DbsAb (CD3×PRLR双特异性抗体) (bispecific antibody, human IgG1, kappa)
heavy 1: not shown
light 1: DIQMTQSPSSLSASVGDRVTITCSASSSVSYMNWYQQTPGKAPKRWIYDTSKLASGVPSRFSGSGSGTDYTFTISSLQPEDIATYYCQQWSSNPFTFGQGTKLQITRTVAAPSVFIFPPSDEQLKSGTASVVCLLNNFYPREAKVQWKVDNALQSGNSQESVTEQDSKDSTYSLSSTLTLSKADYEKHKVYACEVTHQGLSSPVTKSFNRGEC
heavy 2: not shown
light 2: not shown
notes: also called PRLR-DsbAb; CD3和PRLR双特异性抗体
Kd: 2.31 nM | koff: 0.000679 s⁻¹ | kon: 294000 M⁻¹ s⁻¹
